Laboratory results published in patent US20210338733A1 (University of Pennsylvania, published 2021).

Molecular target: T1, TnMUC1 (aberrantly glycosylated Tn glycoform of MUC1) as expressed by tumor cells (human, UniProt P15941 24-1255, Tn (GalNAca1-O-Ser/Thr) glycans; sites not stated)
T1 construct: whole, on cells; One molecule is used for all TnMUC1-positive target cells; In the IHC of breast tumor tissue the staining was cytoplasmic and/or membranous; also called TnMUC1 antigen; TnMUC1+ target cells (Jurkat E6-1, Hs766T, MCF7, breast cancer cell lines and tissue)
Assay: immunohistochemistry on breast cancer tissue

T1 sequence (P15941 24-1255): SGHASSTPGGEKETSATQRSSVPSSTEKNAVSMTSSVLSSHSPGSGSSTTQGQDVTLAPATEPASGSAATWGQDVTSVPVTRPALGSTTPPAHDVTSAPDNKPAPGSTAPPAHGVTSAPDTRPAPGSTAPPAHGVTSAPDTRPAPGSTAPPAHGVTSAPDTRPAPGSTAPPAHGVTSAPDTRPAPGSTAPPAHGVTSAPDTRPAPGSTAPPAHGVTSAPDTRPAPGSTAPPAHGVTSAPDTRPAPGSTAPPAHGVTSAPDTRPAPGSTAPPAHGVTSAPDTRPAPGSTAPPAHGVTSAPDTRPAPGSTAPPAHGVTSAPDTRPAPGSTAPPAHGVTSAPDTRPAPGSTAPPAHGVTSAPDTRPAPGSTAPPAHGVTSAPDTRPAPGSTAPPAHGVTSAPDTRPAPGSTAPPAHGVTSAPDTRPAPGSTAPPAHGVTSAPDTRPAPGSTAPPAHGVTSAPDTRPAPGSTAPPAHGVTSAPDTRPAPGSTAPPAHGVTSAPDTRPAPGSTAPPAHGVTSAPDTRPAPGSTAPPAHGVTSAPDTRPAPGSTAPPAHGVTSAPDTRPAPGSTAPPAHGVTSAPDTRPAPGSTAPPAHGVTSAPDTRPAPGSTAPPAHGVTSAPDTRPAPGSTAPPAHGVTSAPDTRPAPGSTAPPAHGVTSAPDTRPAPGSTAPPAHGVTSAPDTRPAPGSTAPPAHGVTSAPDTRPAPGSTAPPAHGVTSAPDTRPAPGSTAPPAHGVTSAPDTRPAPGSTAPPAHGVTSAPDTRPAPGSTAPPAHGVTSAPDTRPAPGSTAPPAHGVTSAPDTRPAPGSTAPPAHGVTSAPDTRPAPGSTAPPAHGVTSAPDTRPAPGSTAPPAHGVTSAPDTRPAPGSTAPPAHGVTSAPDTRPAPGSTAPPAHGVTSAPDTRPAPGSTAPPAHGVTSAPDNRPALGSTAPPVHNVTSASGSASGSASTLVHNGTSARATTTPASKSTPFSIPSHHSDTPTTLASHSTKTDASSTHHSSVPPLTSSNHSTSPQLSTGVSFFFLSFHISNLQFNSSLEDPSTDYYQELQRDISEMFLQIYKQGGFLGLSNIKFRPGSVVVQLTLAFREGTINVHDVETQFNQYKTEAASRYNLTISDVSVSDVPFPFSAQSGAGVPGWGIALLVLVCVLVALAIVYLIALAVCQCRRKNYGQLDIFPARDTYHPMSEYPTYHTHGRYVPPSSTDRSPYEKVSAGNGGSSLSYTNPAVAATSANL

B1: Anti-TnMUC1 murine monoclonal antibody clone 5E5 (antibody, V domains shown)
VH: QVQLQQSDAELVKPGSSVKISCKASGYTFTDHAIHWVKQKPEQGLEWIGHFSPGNTDIKYNDKFKGKATLTVDRSSSTAYMQLNSLTSEDSAVYFCKTSTFFFDYWGQGTTLTVSS
VL: ELVMTQSPSSLTVTAGEKVTMICKSSQSLLNSGDQKNYLTWYQQKPGQPPKLLIFWASTRESGVPDRFTGSGSGTDFTLTISSVQAEDLAVYYCQNDYSYPLTFGAGTKLELK
notes: also called 5E5 mAb; mAb 5E5
  binding result: binds
